# Experimental data from article PMC10723421.
# T1: CLAMP (recombinant full-length) (UniProt Q9V9N4 1-561)
# T1 sequence: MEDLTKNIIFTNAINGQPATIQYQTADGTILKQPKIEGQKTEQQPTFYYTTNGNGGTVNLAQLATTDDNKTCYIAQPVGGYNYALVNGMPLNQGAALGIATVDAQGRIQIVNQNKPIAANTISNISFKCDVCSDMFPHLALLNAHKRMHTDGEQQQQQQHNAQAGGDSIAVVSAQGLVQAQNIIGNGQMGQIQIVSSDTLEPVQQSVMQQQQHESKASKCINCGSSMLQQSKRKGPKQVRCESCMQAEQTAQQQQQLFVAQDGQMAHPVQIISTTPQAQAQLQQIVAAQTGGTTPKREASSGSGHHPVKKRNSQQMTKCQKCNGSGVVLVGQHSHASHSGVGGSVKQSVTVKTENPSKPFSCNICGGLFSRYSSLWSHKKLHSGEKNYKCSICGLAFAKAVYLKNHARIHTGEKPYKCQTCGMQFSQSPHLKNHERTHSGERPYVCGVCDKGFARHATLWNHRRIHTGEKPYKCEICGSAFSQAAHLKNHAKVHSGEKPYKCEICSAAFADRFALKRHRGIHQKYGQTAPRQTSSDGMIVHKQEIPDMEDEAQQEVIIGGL
# B1: GA del H3/H4p probe, biotin (198 bp) (dsDNA)
# DNA 1: CACAGCACGAAAGTCACTAAAGAACTAATTTCAACGTTTCTGTGTGCCCCTATTTATAGGTAAAACGACAAAAACCCTACGAACGATATGTTCGTTCGCTTTTCGCTCGTCAAATGAAATGGCCTCTGTTTTTTCACCGTCCACGATTGCTATATAAGTAGGTAGCAAATGCTCTGATCGTTTATTGTGTTTTCAAAC
# DNA 2: GTTTGAAAACACAATAAACGATCAGAGCATTTGCTACCTACTTATATAGCAATCGTGGACGGTGAAAAAACAGAGGCCATTTCATTTGACGAGCGAAAAGCGAACGAACATATCGTTCGTAGGGTTTTTGTCGTTTTACCTATAAATAGGGGCACACAGAAACGTTGAAATTAGTTCTTTAGTGACTTTCGTGCTGTG
# Target: T1, CLAMP (recombinant full-length)
# Test: EMSA
binder,measurement,value
B1,binding result,no binding
